Laboratory results: patent publication US20110300138A1 (published 2011)
Where two headings read alike, the source gives them in different places.

Columns and labels:
[1] = target: TSHR with Asp43 mutated to Ala, expressed in CHO cells (human) (UniProt P16473); experiment: cell-based or functional assay
[2] = target: TSHR with Gln235 mutated to Ala expressed in CHO cells (human) (UniProt P16473); experiment: cell-based or functional assay
[3] = target: TSHR with Lys129 mutated to Ala, expressed in CHO cells (human) (UniProt P16473); experiment: cell-based or functional assay
[4] = target: human TSHR (thyroid stimulating hormone receptor), full length, expressed in transfected CHO cells (human) (UniProt P16473); experiment: cell-based or functional assay
[5] = target: wild type human TSHR (full length) expressed in CHO cells (human) (UniProt P16473); experiment: cell-based or functional assay
[6] = target: TSHR with Arg255 mutated to Asp expressed in CHO cells (human) (UniProt P16473); experiment: cell-based or functional assay
[7] = target: wild type TSHR expressed in CHO cells (human) (UniProt P16473); experiment: cell-based or functional assay
[8] = target: TSHR with His105 mutated to Ala (expressed in CHO cells) (human) (UniProt P16473); experiment: cell-based or functional assay
[9] = target: wild type TSHR expressed in CHO cells (human) (UniProt P16473); experiment: cell-based or functional assay; remark: listed apart in the source
[10] = target: TSHR with Lys209 mutated to Ala (human) (UniProt P16473); experiment: cell-based or functional assay
[11] = target: wild type TSHR (human) (UniProt P16473); experiment: cell-based or functional assay
[12] = target: TSH receptor (TSHR), full length human, coated on tubes (human) (UniProt P16473); experiment: inhibition of 125I-TSH binding to TSHR coated tubes; 0.1 µg/mL, diluted in assay buffer
[13] = target: TSHR260-AP (human); experiment: TSHR260-AP bridge ELISA (full length TSHR on wells, TSHR260-AP in solution); IgG 100 µg/mL diluted in assay buffer

Substance: 5B3 IgG (antibody)
- % inhibition of TSH stimulation, 5B3 10 µg/mL, mutated TSHR [1]: 0%
- % inhibition of TSH stimulation, 5B3 100 µg/mL, mutated TSHR [1]: 4%
- Cyclic AMP produced (pmol/mL), 5B3 10 µg/mL + TSH 3 ng/mL, mutated TSHR [1]: 73.7 pmol/mL
- Cyclic AMP produced (pmol/mL), 5B3 100 µg/mL + TSH 3 ng/mL, mutated TSHR [1]: 58 pmol/mL
- Mutated/wild type (%), 5B3 10 µg/mL + TSH 3 ng/mL [1]: 69%
- Mutated/wild type (%), 5B3 100 µg/mL + TSH 3 ng/mL [1]: 56%
- Experiment 1: % inhibition of TSH stimulation; 5B3 10 µg/mL [2]: 0%
- Experiment 1: % inhibition of TSH stimulation; 5B3 100 µg/mL [2]: 0%
- Experiment 1: Mutated/wild type (%) of cyclic AMP produced; 5B3 10 µg/mL + TSH 3 ng/mL [2]: 80%
- Experiment 1: Mutated/wild type (%) of cyclic AMP produced; 5B3 100 µg/mL + TSH 3 ng/mL [2]: 63%
- Experiment 2: % inhibition of TSH stimulation; 5B3 10 µg/mL [2]: 14%
- Experiment 2: % inhibition of TSH stimulation; 5B3 100 µg/mL [2]: 0%
- Experiment 2: Mutated/wild type (%) of cyclic AMP produced; 5B3 10 µg/mL + TSH 3 ng/mL [2]: 77%
- Experiment 2: Mutated/wild type (%) of cyclic AMP produced; 5B3 100 µg/mL + TSH 3 ng/mL [2]: 95%
- % inhibition of TSH stimulation; 5B3 10 µg/mL [3]: 0%
- % inhibition of TSH stimulation; 5B3 100 µg/mL [3]: 13%
- Cyclic AMP produced; 5B3 10 µg/mL + TSH 3 ng/mL [3]: 50.5 pmol/mL
- Cyclic AMP produced; 5B3 100 µg/mL + TSH 3 ng/mL [3]: 42.6 pmol/mL
- Mutated/wild type (%) of cyclic AMP produced; 5B3 10 µg/mL + TSH 3 ng/mL [3]: 94%
- Mutated/wild type (%) of cyclic AMP produced; 5B3 100 µg/mL + TSH 3 ng/mL [3]: 81%
- % Inhibition of K1-18 IgG stimulation; 10 ng/mL K1-18 IgG + 100 µg/mL 5B3 IgG [4]: 0%
- % Inhibition of K1-18 stimulation; 10 ng/mL K1-18 + 100 µg/mL 5B3 IgG [4]: 0%
- % Inhibition of K1-18 stimulation; 10 ng/mL KM 8 [K1-18] + 10 µg/mL 5B3 IgG [4]: 3.5%
- % inhibition of TSH stimulation, 5B3 10 µg/mL, wild type TSHR [5]: 0%
- % inhibition of TSH stimulation, 5B3 100 µg/mL, wild type TSHR [5]: 0%
- Cyclic AMP produced (pmol/mL), 5B3 10 µg/mL + TSH 3 ng/mL, wild type TSHR [5]: 106 pmol/mL
- Cyclic AMP produced (pmol/mL), 5B3 100 µg/mL + TSH 3 ng/mL, wild type TSHR [5]: 104 pmol/mL
- % inhibition of TSH stimulation; 5B3 10 µg/mL [6]: 0%
- % inhibition of TSH stimulation; 5B3 100 µg/mL [6]: 0%
- Cyclic AMP produced; 5B3 10 µg/mL + TSH 3 ng/mL [6]: 59.4 pmol/mL
- Cyclic AMP produced; 5B3 100 µg/mL + TSH 3 ng/mL [6]: 62.2 pmol/mL
- Mutated/wild type (%) of cyclic AMP produced; 5B3 10 µg/mL + TSH 3 ng/mL [6]: 86%
- Mutated/wild type (%) of cyclic AMP produced; 5B3 100 µg/mL + TSH 3 ng/mL [6]: 75%
- % inhibition of TSH stimulation; 5B3 10 µg/mL [7]: 0%
- % inhibition of TSH stimulation; 5B3 100 µg/mL [7]: 0%
- Cyclic AMP produced; 5B3 10 µg/mL + TSH 3 ng/mL [7]: 69.2 pmol/mL
- Cyclic AMP produced; 5B3 100 µg/mL + TSH 3 ng/mL [7]: 83.4 pmol/mL
- % inhibition of TSH stimulation; 5B3 10 µg/mL [8]: 0%
- % inhibition of TSH stimulation; 5B3 100 µg/mL [8]: 0%
- Cyclic AMP produced; 5B3 10 µg/mL + TSH 3 ng/mL [8]: 75.2 pmol/mL
- Cyclic AMP produced; 5B3 100 µg/mL + TSH 3 ng/mL [8]: 66.7 pmol/mL
- Mutated/wild type (%) of cyclic AMP produced; 5B3 10 µg/mL + TSH 3 ng/mL [8]: 82%
- Mutated/wild type (%) of cyclic AMP produced; 5B3 100 µg/mL + TSH 3 ng/mL [8]: 50%
- % inhibition of TSH stimulation; 5B3 10 µg/mL [9]: 2%
- Cyclic AMP produced; 5B3 10 µg/mL + TSH 3 ng/mL [9]: 91.6 pmol/mL
- Cyclic AMP produced; 5B3 100 µg/mL + TSH 3 ng/mL [9]: 134 pmol/mL
- % inhibition of TSH stimulation, 5B3 10 µg/mL, mutated TSHR [10]: 2%
- % inhibition of TSH stimulation, 5B3 100 µg/mL, mutated TSHR [10]: 3%
- Cyclic AMP produced (pmol/mL), 5B3 10 µg/mL + TSH 3 ng/mL, mutated TSHR [10]: 56.5 pmol/mL
- Cyclic AMP produced (pmol/mL), 5B3 100 µg/mL + TSH 3 ng/mL, mutated TSHR [10]: 55.9 pmol/mL
- Mutated/wild type (%) of cyclic AMP produced; 5B3 10 µg/mL + TSH 3 ng/mL [10]: 74%
- Mutated/wild type (%) of cyclic AMP produced; 5B3 100 µg/mL + TSH 3 ng/mL [10]: 64%
- % inhibition of TSH stimulation, 5B3 10 µg/mL, wild type TSHR [11]: 3%
- Cyclic AMP produced (pmol/mL), 5B3 10 µg/mL + TSH 3 ng/mL, wild type TSHR [11]: 76.6 pmol/mL
- Cyclic AMP produced (pmol/mL), 5B3 100 µg/mL + TSH 3 ng/mL, wild type TSHR [11]: 87.7 pmol/mL
- Inhibition of binding (%) [12]: -5%
- Mean absorbance at 405 nm (absorbance at 405 nm) [13]: -0.011
